Laboratory results reported in patent US20060104978A1, “Methods and compositions for PDGF-C activation and inhibition” (LUDWIG INSTITUTE FOR CANCER RESEARCH, priority 2003, published 2006).

Tests used:
latent PDGF-CC = target: T1, latent PDGF-CC (Homo sapiens, UniProt Q9NRA1); assay: Cotransfection assay in COS-1 cells: protease plus full-length PDGF-C; format: cell-based; settings: α2-anti-plasmin 10 ng-1 μg added to the cotransfection medium for 24 hours
T1 construct: cotransfected with full-length PDGF-C (Li et al, 2000), full-length PDGF-D (Bergsten et al, 2001); expressed in transfected cells; host or cells: COS-1 cells
T1 sequence (Q9NRA1 23-345): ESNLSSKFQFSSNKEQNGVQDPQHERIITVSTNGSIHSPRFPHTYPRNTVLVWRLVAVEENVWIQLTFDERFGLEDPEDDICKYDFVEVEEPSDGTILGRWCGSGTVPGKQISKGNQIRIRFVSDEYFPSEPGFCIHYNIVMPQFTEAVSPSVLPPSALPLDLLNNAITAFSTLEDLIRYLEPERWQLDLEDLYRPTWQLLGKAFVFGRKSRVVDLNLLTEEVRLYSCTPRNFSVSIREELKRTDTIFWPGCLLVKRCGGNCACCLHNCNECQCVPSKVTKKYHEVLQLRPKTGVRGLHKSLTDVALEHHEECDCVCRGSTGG
Text: A cotransfection assay was established to identify serine proteases able to cleave and activate latent PDGF-CC. Expression plasmids encoding the relevant enzymes and full-length PDGF-C were cotransfected into COS-1 cells, and aliquots of the conditioned media from the transfectants were subjected to SDS-PAGE and immunoblotting using antibodies to the growth factor domain of PDGF-C. […] As a specificity control, the ability of tPA and NT to use full-length PDGF-DD as the substrate in the cotransfection assay was analysed. […] One difference in the latter results, as compared with the results from the cotransfection assay, was that purified tPA generated a second intermediate species of 32 kDa using latent PDGF-CC as the substrate. It is possible that this intermediate is the result of digestion by plasmin contamination in the tPA preparation, since the size of the fragment is similar to that of plasmincleaved PDGF-CC previously reported (Li et al, 2000). […]
To test the endogenous expression of PDGF-CC, subconfluent AG1523 cells and primary fibroblast cultures were cultured in serum-free DMEM overnight. […] In the case of the primary cultures, total protein concentration was measured and normalized (Bradford, 1976). […]

tPA = assay: Cotransfection assay in COS-1 cells: PDGF-CC forms and mutants coexpressed with tPA; format: cell-based, human; settings: COS-1 cotransfection with tPA, immunoblot; cleavage site mutant made from mouse PDGF-C cDNA
Chain of tPA (P00750 36-562): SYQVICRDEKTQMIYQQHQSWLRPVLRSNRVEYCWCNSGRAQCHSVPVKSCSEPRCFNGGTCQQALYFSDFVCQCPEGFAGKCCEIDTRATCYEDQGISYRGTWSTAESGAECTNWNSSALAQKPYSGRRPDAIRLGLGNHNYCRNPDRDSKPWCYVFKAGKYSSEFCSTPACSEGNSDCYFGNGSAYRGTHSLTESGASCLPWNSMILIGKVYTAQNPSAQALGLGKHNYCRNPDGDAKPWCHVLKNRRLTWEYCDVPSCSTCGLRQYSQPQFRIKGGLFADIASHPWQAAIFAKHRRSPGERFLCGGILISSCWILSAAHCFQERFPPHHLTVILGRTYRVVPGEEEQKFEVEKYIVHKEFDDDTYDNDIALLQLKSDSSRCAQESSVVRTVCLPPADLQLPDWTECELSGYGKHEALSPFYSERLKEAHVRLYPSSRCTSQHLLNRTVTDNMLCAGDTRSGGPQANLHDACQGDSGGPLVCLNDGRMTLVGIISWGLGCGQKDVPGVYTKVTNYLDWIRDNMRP
Text: The structural requirements for recognition of full-length PDGF-CC as a substrate for tPA were mapped by analysis of several mutated forms of PDGF-CC using the co-transfection assay. The mutants of PDGF-CC included a chimeric form of PDGF-C carrying the CUB domain from PDGF-D and the hinge region and growth factor domain of PDGF-C (mutant PDCUBPC), and several truncation mutants lacking the CUB domain and increasing parts of the hinge region (schematically illustratrated in FIG. 6A). All mutants were properly expressed in transfected COS-1 cells, formed disulfide-linked dimers (data not shown), and were efficiently secreted, except truncation mutant Δ190 that was expressed at a lower level in the conditioned medium (FIG. 6B).
A conserved site of four amino acids containing three basic amino-acid residues (amino-acid residues -R-K-S-R-) was previously identified as a potential site for proteolytic activation of latent PDGF-CC (Li et al, 2000). […]
To test the endogenous expression of PDGF-CC, subconfluent AG1523 cells and primary fibroblast cultures were cultured in serum-free DMEM overnight. […] In the case of the primary cultures, total protein concentration was measured and normalized (Bradford, 1976). […] PDGF-C and PDGF-D were detected by immunoblotting using affinity-purified polyclonal rabbit antibodies against PDGF-C (Li et al, 2000) and PDGF-D (Bergsten et al, 2001), respectively. […]

B1: α2-anti-plasmin: specific plasmin inhibitor (#4030, American Diagnostica Inc.) (protein, UniProt P08697 40-491, looked up)
Alpha-2-antiplasmin: NQEQVSPLTLLKLGNQEPGGQTALKSPPGVCSRDPTPEQTHRLARAMMAFTADLFSLVAQTSTCPNLILSPLSVALALSHLALGAQNHTLQRLQQVLHAGSGPCLPHLLSRLCQDLGPGAFRLAARMYLQKGFPIKEDFLEQSEQLFGAKPVSLTGKQEDDLANINQWVKEATEGKIQEFLSGLPEDTVLLLLNAIHFQGFWRNKFDPSLTQRDSFHLDEQFTVPVEMMQARTYPLRWFLLEQPEIQVAHFPFKNNMSFVVLVPTHFEWNVSQVLANLSWDTLHPPLVWERPTKVRLPKLYLKHQMDLVATLSQLGLQELFQAPDLRGISEQSLVVSGVQHQSTLELSEVGVEAAAATSIAMSRMSLSSFSVNRPFLFFIFEDTTGLPLFVGSVRNPNPSAPRELKEQQDSPGNKDFLQSLKGFPRGDKLFGPDLKLVPPMEEDYPQFGSPK
effect on release of core PDGF-C by tPA (latent PDGF-CC): had no effect on the release of core PDGF-C by tPA

B2: PDCUBPC: chimeric PDGF-C carrying the CUB domain from PDGF-D and the hinge region and growth factor domain of PDGF-C (protein)
chain: RDTSATPQSASIKALRNANLRRDESNHLTDLYRRDETIQVKGNGYVQSPRFPNSYPRNLLLTWRLHSQENTRIQLVFDNQFGLEEAENDICRYDFVEVEDISETSTIIRGRWCGHKEVPPRIKSRTNQIKITFKSDDYFVAKPGFKIYYSLLEDQFTEAVSPSVLPPSALPLDLLNNAITAFSTLEDLIRYLEPERWQLDLEDLYRPTWQLLGKAFVFGRKSRVVDLNLLTEEVRLYSCTPRNFSVSIREELKRTDTIFWPGCLLVKRCGGNCACCLHNCNECQCVPSKVTKKYHEVLQLRPKTGVRGLHKSLTDVALEHHEECDCVCRGSTGG
cleavage of the PDGF-CC form by coexpressed tPA (tPA): neither chimeric PDCUBPC, nor the truncation mutants lacking the CUB domain, were efficiently cleaved
